Reference: US20240239875A1 (published 2024)
Residue numbers refer to the chain shown, from its start.

T1: HKU1 spike protein (HCoV-HKU1)
T1 chain: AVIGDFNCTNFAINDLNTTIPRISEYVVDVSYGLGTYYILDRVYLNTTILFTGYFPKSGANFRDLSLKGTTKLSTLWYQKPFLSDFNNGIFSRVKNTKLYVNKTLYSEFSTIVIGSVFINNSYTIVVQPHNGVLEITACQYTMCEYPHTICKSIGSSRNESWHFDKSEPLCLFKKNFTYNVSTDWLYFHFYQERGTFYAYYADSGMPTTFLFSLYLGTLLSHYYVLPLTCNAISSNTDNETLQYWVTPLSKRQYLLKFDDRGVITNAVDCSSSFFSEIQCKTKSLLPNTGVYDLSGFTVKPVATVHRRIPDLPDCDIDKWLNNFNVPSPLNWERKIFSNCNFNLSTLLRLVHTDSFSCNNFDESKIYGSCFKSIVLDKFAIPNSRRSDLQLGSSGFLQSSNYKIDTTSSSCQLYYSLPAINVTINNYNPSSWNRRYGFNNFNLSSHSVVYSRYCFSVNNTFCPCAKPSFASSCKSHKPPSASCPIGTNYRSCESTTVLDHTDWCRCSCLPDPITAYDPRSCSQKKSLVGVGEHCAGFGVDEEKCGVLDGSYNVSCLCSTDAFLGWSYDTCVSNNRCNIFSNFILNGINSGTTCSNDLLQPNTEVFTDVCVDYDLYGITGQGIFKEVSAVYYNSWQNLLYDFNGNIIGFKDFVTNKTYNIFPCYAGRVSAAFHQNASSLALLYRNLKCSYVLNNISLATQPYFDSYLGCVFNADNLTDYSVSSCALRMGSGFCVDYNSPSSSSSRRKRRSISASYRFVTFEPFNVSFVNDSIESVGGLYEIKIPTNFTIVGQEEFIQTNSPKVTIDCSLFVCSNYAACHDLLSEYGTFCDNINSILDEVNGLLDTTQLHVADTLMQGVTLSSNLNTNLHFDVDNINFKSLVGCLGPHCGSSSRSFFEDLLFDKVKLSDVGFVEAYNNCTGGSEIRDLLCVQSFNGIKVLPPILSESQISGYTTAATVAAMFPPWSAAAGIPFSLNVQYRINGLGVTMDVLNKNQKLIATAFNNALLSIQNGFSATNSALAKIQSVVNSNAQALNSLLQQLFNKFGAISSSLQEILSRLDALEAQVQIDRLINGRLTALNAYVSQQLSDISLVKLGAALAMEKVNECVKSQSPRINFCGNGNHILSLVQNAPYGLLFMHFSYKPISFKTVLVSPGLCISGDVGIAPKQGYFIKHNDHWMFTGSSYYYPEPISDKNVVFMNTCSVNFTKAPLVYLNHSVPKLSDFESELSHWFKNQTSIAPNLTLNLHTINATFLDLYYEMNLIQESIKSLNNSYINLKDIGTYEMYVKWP

T2: HCoV-OC43 spike protein (HCoV-OC43)
T2 chain: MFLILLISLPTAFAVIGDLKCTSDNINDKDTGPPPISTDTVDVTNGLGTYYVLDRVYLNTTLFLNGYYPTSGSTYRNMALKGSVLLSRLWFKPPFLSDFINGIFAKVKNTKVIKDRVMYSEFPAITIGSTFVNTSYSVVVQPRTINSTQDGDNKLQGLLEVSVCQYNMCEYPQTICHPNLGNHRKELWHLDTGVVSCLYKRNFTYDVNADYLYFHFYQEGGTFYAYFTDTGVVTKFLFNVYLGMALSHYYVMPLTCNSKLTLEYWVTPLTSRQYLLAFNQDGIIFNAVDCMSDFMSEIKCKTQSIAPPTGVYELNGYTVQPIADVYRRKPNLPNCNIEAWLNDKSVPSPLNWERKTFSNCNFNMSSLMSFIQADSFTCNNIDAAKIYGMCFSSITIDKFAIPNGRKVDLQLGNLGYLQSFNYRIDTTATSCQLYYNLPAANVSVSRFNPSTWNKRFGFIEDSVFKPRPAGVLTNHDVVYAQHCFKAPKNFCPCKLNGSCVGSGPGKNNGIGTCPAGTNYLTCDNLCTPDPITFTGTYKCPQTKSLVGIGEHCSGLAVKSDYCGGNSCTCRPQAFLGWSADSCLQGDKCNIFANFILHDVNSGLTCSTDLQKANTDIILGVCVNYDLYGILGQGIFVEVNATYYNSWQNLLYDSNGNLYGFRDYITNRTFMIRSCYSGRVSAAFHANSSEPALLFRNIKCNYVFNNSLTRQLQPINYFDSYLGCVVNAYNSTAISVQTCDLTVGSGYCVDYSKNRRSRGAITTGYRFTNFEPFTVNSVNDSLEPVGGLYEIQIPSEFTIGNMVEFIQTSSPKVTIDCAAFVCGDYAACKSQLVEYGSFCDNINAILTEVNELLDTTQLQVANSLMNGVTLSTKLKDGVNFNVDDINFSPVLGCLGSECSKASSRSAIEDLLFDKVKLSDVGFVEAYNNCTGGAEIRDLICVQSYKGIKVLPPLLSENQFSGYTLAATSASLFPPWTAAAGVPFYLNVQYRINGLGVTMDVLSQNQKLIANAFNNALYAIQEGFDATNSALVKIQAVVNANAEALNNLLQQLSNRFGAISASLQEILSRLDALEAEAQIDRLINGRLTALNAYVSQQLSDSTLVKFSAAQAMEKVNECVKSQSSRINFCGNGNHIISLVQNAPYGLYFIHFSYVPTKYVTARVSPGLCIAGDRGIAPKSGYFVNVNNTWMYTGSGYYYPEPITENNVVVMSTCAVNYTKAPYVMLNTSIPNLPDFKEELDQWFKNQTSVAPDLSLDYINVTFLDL

B1: 9-F6-A (antibody, V domains shown)
VH: EVQLQQSGPELVKPGASVKMSCKASGYTFTSYIMHWVKQKPGQGLEWIGYILPYNDGTKYNEKFKGKATLTSDKSSSTAYMELRSLTSEDSAVYYCARWGYSNFLDSWGQGTTLTVSS
VL: DIQMTQTTSSLSASLGDRVTISCRASQDINNYLNWYQQKPDGTVKLLIYYTSRLHSGVPSRFSGSGSGTDYSLTIRNLEQEDIATYFCQQGNTLPPTFGGGTKLEIK
B2: 1-B11-A (antibody, V domains shown)
VH: QVQLQQSGPELVKPGASVKISCKASGYTFTDHYINWVKQRPGQGLEWIGWIFPGSGSTYYNEQFKGKATLTVDKSSNTAYMLLSSLTSEDSAVYFCARSGGLRLGFAYWGQGTLVTVSA
VL: B1 VL with N30S, R76S, A84S, G91V, P96Y
B3: 7-D7-A (antibody, V domains shown)
VH: QVQLKESGPGLVAPSQSLSITCTVSGFSLTSYAISWVRQPPGKGLEWLGVIWPGGGTNYNSALKSRLSISKDNSKSQVFLKMNSLQTDDTAKYYCARTGYYFDYWGQGTTLTVSS
VL: QLILTQSPAIMSASPGEKVTMTCSASLSVNYMYWFQQKPGTSPKRWIHDTSKLASGVPARFSGSGSGTSYSLTISSMEAEDAATYYCQQWSSNPPMYTFGGGTKLEIK
B4: 8-A17-A (antibody, V domains shown)
VH: B3 VH with I51V, S70N, A91G, K92R, Y101H
VL: B3 VL with L2I, I3V, A25V, L27S, N30S, Y33H, F35Y, P39S, H48Y
B5: 2-G20-A (antibody, V domains shown)
VH: EVQLQQSGPELVKPGASVKMSCKASGYTFPSYVLHWVKQKPGQGLEWIGYIYPYNDGTNYNEKFKGKATLTSDKSSSTAYMELSSLTSEDSAVYYCARGDYGDSAWFPYWGQGTLVTVSA
VL: DIVLTQSPASLAVSLGQRATISCRASKSVSTSGYSYMHWYQQKPGQPPKLLIYLASNLKSGVPARFSGGGSGTDFTLNIHPVEEEDAATYYCQLSRELPWTFGGGTKLEIK
B6: 6-O12-A (antibody, V domains shown)
VH: QVQLQQPGTELVKPGASVKLSCKASGYTFTSYWMHWVKQRPGQGLEWIGNINPSNGGTNYNEKFRSKATLTVDKSSSTAYMQLSSLTSEDSAVYYCARLGWFLPLGSWGQGTTLTVSS
VL: QIVLTQSPAIMSASLGEVITLTCSASSSVSYMHWYQQKSGTSPKLLIYSTSNLASGVPSRFSGSGSGTFYSLTISSVEAEDAADYYCHQWSGYMYTFGGGTKLEIK
B7: 1-L10-A (antibody, V domains shown)
VH: EVKLEESGGGLVQPGGSMKLSCVASGFTFNNYWMNWVRQSPEKGLEWVAQMRLKSDNYATHYAESVKGRFTISRDDSKSSVYLQMNNLRAEDTGIYYCIEGYWTYWGQGTLVTVSA
VL: QIVLTQSPAIMSASLGERVTMTCTASSSVSSSYLHWYQQKPGSSPKLWIYSTSNLASGVPARFSGNGSGTSYSLTISSMEAEDAATYYCLQYHRSPPYTFGGGTKLEIK

The binders below were run against SARS-CoV-2 prefusion stabilized trimer protein (WIV02 isolate spike protein) (UniProt P0DTC2 14-1213) (assay: ELISA).

| Binder | EC50 [nM] |
| --- | --- |
| B1 | 0.59 |
| B2 | 10.7 |
| B3 | 0.72 |
| B4 | 0.27 |
| B5 | 1.83 |
| B6 | 0.39 |
| B7 | 111 |

These binders were tested against SARS-CoV-1 spike protein (SARS-CoV-1, UniProt P59594 14-1195) (assay: ELISA).

| Binder | EC50 [nM] |
| --- | --- |
| B1 | 0.46 |
| B2 | 0.55 |
| B3 | 3.05 |
| B4 | 0.36 |
| B5 | 1.44 |
| B6 | 0.24 |
| B7 | 5.27 |

Target: T1, HKU1 spike protein
Test: ELISA

| Binder | EC50 [nM] |
| --- | --- |
| B1 | 0.61 |
| B2 | 0.82 |
| B3 | 1.3 |
| B4 | 0.37 |
| B5 | 1.39 |
| B6 | 0.41 |
| B7 | 2.73 |

Target: T2, HCoV-OC43 spike protein
Test: ELISA

| Binder | EC50 [nM] |
| --- | --- |
| B1 | 0.05 |
| B2 | 0.57 |
| B3 | 0.23 |
| B4 | 0.05 |
| B5 | 0.28 |
| B6 | 0.23 |
| B7 | 0.77 |
